In CN117999282A:

Columns and labels:
[1] = target: cynomolgus Vδ1 antigen DV1/GV77, recombinant heterodimer (食蟹猴 (cynomolgus)); assay: SPR (Reichert 4SPR), antibody on protein A chip
[2] = target: L1 (DV1-GV4), soluble human Vδ1Vγ4 γδTCR heterodimer, leucine zipper (LZ) format (human); assay: SPR (Reichert 4SPR), antibody on protein A chip
Chain of L1 (DV1-GV4), soluble human Vδ1Vγ4 γδTCR heterodimer, leucine zipper (LZ) format (human) (main, as listed by the source): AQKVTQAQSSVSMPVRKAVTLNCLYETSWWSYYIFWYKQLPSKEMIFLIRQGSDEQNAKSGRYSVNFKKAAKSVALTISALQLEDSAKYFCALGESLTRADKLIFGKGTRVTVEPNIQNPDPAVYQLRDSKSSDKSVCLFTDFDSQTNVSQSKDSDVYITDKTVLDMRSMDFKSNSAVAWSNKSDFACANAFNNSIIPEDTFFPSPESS

Chain of cynomolgus Vδ1 antigen DV1/GV77, recombinant heterodimer (食蟹猴 (cynomolgus)) (main, as listed by the source): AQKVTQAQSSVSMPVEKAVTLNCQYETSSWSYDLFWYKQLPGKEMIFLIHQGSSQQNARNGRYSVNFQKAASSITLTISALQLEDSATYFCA

fold increase of affinity against ADT1-4 [1] [fold]	fold decrease of affinity against ADT1-4-2 [2] [fold]	fold decrease of affinity against ADT1-4-2 [1] [fold]	Binder
5			ADT1-4(S74L) (antibody, V domains shown) VH: QVQLQQSGPGLVKPSQTLSLTCAISGDSVSSKSAAWNWIRQSPSRGLEWLGRTYYRSKWSTDYAASVKSRITINPDTSKNQLSLQLNSVTPEDTAVYYCARTWSGYVDVWGQGTLVTVSS VL: DIQMTQSPPALSASVGDRVTITCRASQDINDWLAWYQHKPGKAPKLLIYDASSLESGVPLRFSGSGSGTEFTLTISSLQPDDFATYYCQQSYSTPQVTFGQGTRLEIKR
	11	23	ADT1-4-2(L74S) (antibody, part only; not given: mutant kappa chain, V domains shown, part only) VH: EVQLQQSGPGLVKPSQTLSLTCAISGDSVSSKSAAWNWIRQSPSRGLEWLGRTYYRSKWSTDYAASVKSRITINPDTSKNQLSLQLNSVTPEDTAVYYCARTWVGYVDRWGQGTLVTVSS
